From paper PMC12150756 (Infection and Immunity, 2025) come the findings set out here.

Positions count from the first letter of the chain named.

The chains are these.
B1: sdAb9, anti-PfCSP camelid single-domain antibody (VHH)
VHH: QVQLQESGGGLVQAGGSLRLSCAASGRTFSSYSMGWFRQVPGKEREFVARITSSGGNTDYADSAKGRFTISRDNAKNTVYLQMSTLKPEDTAVYYCAADLWQYGRNSRAADYDYWGQGTQVTVSS
notes: from the library of the alpaca Attitude (immunized with PfCSPFL); Expressed from pMECS-GG; Same VHH family as sdAb1; source: E. coli WK6, periplasmic extract, purified (Ni-NTA, SEC); crude bacterial extract for the screening ELISA
B2: sdAb1, anti-PfCSP camelid single-domain antibody (VHH)
VHH: B1 VHH with Q39L, T52S, D59Y, A64V, K65R, S84N, T85S, W101L, Y103F, N106S
notes: from the library of the alpaca Attitude (immunized with PfCSPFL); Expressed from pMECS-GG; Same VHH family as sdAb9; source: E. coli WK6, periplasmic extract, purified (Ni-NTA, SEC); crude bacterial extract for the screening ELISA
B3: sdAb3 (VHH)
VHH: QVQLQESGGGLVQAGGSLRLSCAASGRTFTEYSMGWFRQAPGKEREFVARISWSGGSTYYADSVKGRFTISRDNAENTVYLQMTSLKPEDTAVYYCAADQLQFGRNSRAADYDDWGQGTQVTVSS
B4: sdAb18 (VHH)
VHH: QVQLQESGGGLVQPGGSLNLSCTAGVSLDYYAIGWFRQAPGKEREFVARISSSGGNTYYADSVRGRFTISRDNAKNTVYLQMNSLKPEDTAVYYCAADLLQFGRSSRAADYDYWGQGTQVTVSS
B5: sdAb15 (VHH)
VHH: QVQLQESGGGLVQAGGSLRLSCVATGRPFDDYTVAWFRQAPGKERDFVAAISRSGVSTYYQDDVKGRFTISRDNARNTAYLSMNSLKPEDTAVYYCAARSTIRLLTDPSYDYWGQGTQVTVSS
B6: sdAb10 (VHH)
VHH: QVQLQESGGGLVQPGGSLRLSCAASGRTFSSYTMGWFRQAPGKERELVAAISRSGLNTDYADSVKGRFTISRDNAKNTVYLQMNTLKPEDTAVYYCAARSTIRLLTDPSYDYWGQGTQVTVSS
B7: sdAb5 (VHH)
VHH: QVQLQESGGGLVQAGGSLRLSCAASGRTFGSYVMGWFRQAPGKEREFVAAISRSGGTTYYADSVKGRFAISRDNAKNTVFLQMNSLKPEDTAVYYCAATTTISMLVVLTTTPKYDYWGQGTQVTVSS
B8: sdAb4 (VHH)
VHH: QVQLQESGGGLVQVGGSLRLSCAASGRTFSSYTMAWFRQAPGKEREFVAAISRSGSNTYYADSVKGRFTISRDNAKNTVYLQMSSLYPEDTAVYTCAARDAILLLTTTHYDYWGQGTQVTVSS
B9: sdAb8 (VHH)
VHH: QVQLQESGGGLVQAGGSLRLSCAASGRTVSSYTMGWFRQAPGKERSFVAASLRSGGSTYYSDSVKGRFTISRDNAKNTVYLQMNSLRPEDTAVYYCAADEQLAYNINYNYRNYDYWGQGTQVTVSS
B10: sdAb6 (VHH)
VHH: QVQLQESGGGLVQAGGSLRVSCVGSGRAFSRYSMGWFRQFPGKEREFVACISSSGGAIDYADSVKGRFTISRDNAKNAVYLQMNSLKPDDTAVYYCAADQFRISTVPMGVIDYWGQGTQVTVSS
B11: sdAb7 (VHH)
VHH: QVQLQESGGGVVQTGGSLRLSCAASVRTFSNYALGWFRQAPGKEREFVARISSSGGNTYYADSVRGRFTISRDNAKNTVYLQMNSLKPEDTAVYYCAADLLQFGRSSRAADYDYWGQGTQVTVSS
B12: sdAb2 (VHH)
VHH: QVQLQESGGGLVQFGGSLRLSCAASGFTFSSANMSWVRQAPGKGLEWVSTISPGGGTTSYAGSVKGRFTISRDNAKNTLYLQMNALKPEDTAVYYCATGGPSSQESVYRGQGTQVTVSS

T3 sequence (P19597 20-384): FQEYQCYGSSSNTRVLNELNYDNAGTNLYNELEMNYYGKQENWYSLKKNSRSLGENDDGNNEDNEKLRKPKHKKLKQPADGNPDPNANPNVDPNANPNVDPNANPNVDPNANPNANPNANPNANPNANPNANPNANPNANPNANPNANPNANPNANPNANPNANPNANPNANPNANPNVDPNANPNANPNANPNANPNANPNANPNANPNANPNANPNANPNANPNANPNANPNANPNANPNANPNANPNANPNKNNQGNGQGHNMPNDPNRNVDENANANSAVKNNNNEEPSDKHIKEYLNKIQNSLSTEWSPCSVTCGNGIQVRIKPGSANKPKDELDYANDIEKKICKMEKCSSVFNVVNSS
T1 sequence (Q7K740 19-374): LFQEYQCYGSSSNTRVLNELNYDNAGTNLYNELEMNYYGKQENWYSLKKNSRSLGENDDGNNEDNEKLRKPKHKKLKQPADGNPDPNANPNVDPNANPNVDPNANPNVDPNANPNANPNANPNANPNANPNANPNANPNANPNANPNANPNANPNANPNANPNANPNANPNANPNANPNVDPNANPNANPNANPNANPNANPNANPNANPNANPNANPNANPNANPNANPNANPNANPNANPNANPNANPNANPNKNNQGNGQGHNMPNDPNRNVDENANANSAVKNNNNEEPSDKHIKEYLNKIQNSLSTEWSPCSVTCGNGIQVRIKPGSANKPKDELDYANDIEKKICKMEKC

One test addresses T1, full-length CSP from P. falciparum 3D7 on the surface of transgenic P. berghei ANKA sporozoites (PfCSP-PbSPZs) (P. falciparum 3D7, UniProt Q7K740).
T1 construct: Full-length circumsporozoite protein of P. falciparum 3D7, expressed on transgenic P. berghei ANKA sporozoites; The same protein on midgut (MG) and salivary gland (SG) sporozoites; the assays tell them apart; also called PfCSP on MG SPZs; PfCSP on SG SPZs; source: transgenic P. berghei ANKA sporozoites isolated from midguts or salivary glands of Anopheles stephensi
Put plainly: flow cytometry on cells; salivary gland PfCSP-PbSPZs (15- and 22-day-old), formaldehyde-fixed; sdAb incubated at ambient temperature; detected with anti-HA Alexa Fluor 647; MFI. The settings on record: one partner purified. (In general: In flow cytometry, cells or beads pass a laser one at a time.)
For B1, the binding result was “binds”.
In the case of B2, the binding result is given as “binds”.

In the next test the target is T2, PfCSPC, C-terminal αTSR domain of P. falciparum NF54 circumsporozoite protein (E310-S384) (P. falciparum NF54, UniProt P19597).
T2 construct: C-terminal domain (αTSR) of circumsporozoite protein of P. falciparum NF54, UniProt P19597, residues E310-S384; source: E. coli SHuffle T7 Express, purified (IMAC, SEC); not shown: TEV cleavage site (…), C-terminal, kept; His6, C-terminal, kept
T2 sequence (P19597 310-384): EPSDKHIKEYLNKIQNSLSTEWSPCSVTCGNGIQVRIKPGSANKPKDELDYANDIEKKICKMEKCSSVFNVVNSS
Nature of the test: crystal structure; sdAb:PfCSPC complex prepared at 1.2:1, purified by SEC in 20 mM Tris-HCl, 150 mM NaCl, pH 7.5; sitting drop at 20°C; tags retained; data to ~2.1 Å. Particulars: both partners purified.
Regarding B1, the binding result is reported as “binds”.
Regarding B2, the binding result is recorded as “binds”.

Another test has as its target T3, PfCSPFL, recombinant full-length P. falciparum NF54 circumsporozoite protein devoid of signal peptide and GPI … (P. falciparum NF54, UniProt P19597).
Test: not given
Conditions: not given
With B3, the binding result is “binds”.
As for B4, the binding result is reported as “binds”.
As for B5, the binding result was “binds”.
Turning to B6, the binding result is “binds”.
For B7, the binding result is recorded as “binds”.
On to B8, for which the binding result was “binds”.
For the molecule B9, the binding result is listed as “binds”.
The same measure, in the same setting: for B10 the value was “binds”; for B11, “binds”.
Still for that read-out and setting: under B12 stands “binds”.

Another test deals with T2, PfCSPC, C-terminal αTSR domain of P. ….
Test: not given
Conditions: not given
On to B3, for which the binding result is reported as “binds”.
The same measure, in the same setting: under B4 stands “binds”; under B5, “binds”; under B6, “binds”.
For B7, the binding result is on record as “binds”.
In the case of B8, the binding result was “binds”.
As to B9, the binding result was “binds”.
In the case of B10, the binding result is “binds”.
As for B11, the binding result was “binds”.
B12: the binding result is on record as “binds”.

The target of the next test is T3, PfCSPFL, recombinant full-length P. …. Nature of the test: ELISA; antigen coated at 1 µg/mL on Maxisorb plates, blocked with 5% milk in PBS; purified sdAb at 1 µg/mL, 1 h at room temperature, triplicates; detected with anti-HA mAb and anti-mouse-HRP. Particulars: both partners purified. On the technique in general: ELISA stands for enzyme-linked immunosorbent assay.
With B1, the binding result is recorded as “binds”.
On to B2, for which the binding result was “binds”.

The target of the next test is PbCSPFL, recombinant full-length P. berghei ANKA circumsporozoite protein devoid of signal peptide and GPI … (Plasmodium berghei ANKA, UniProt P23093). The description is as above. Particulars: both partners purified.
With B1, the binding result is recorded as “no binding (tested: 1 µg/mL sdAb)”.
On to B2, for which the binding result is given as “no binding (tested: 1 µg/mL sdAb)”.
